In publication PMC3220508 one finds normalized netFRET, 5 min hypotonic (isotonic = 1.00), normalized netFRET, 15 min hypotonic (isotonic = 1.00) and normalized netFRET, 30 min hypotonic (isotonic = 1.00) data, which are given here for one substance.

The target of this experiment is HSPC038-EYFP fusion protein (human) (UniProt Q9Y5V0). Kind of experiment: FRET or BRET. (In BRET a luciferase serves as donor, and the signal depends on an acceptor being close.)
Sequence of UniProt Q9Y5V0 (Q9Y5V0 whole entry, the tested form may be a part): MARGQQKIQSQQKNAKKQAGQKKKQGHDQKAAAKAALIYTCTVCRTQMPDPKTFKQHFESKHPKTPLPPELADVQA

In the case of “ICln-ECFP fusion protein (from UniProt P54105 1-237) (natural protein)”, the normalized netFRET, 5 min hypotonic (isotonic = 1.00) worked out at 1.31; the normalized netFRET, 15 min hypotonic (isotonic = 1.00) is 1.44; the normalized netFRET, 30 min hypotonic (isotonic = 1.00) came out at 1.49.
